Laboratory results published in paper PMC7465229.

test system: H5N1 influenza A virus, whole virion (hemagglutinin presumed target) (Influenza A virus H5N1 (A/wild duck/Korea/SNU50-5/2011)); assay: rGO fluorescence recovery; conditions: assay buffer, pH and temperature not stated ([…]

Sequence | Kd
ATGCGGATCCCGCGCGCGACCGTGTCAGCGGGGACTAGCGGTGTAGCGCGAAGCTTGCGC [HBA1] | 70 nM
ATGCGGATCCCGCGCGGGTCTGAGGAGTGCGCGGTGCCAGTGAGTGCGCGAAGCTTGCGC [HBA2] | 122 nM
CCGCGCGGGTCTGAGGAGTGCGCGG [tHBA2] | 1320 nM
GACCGTGTCAGCGGGGACTAGCGGTG [tHBA1] | 492 nM
